Experimental data from patent publication US10502741B2, “Means and methods for detecting activated MALT1” (Helmholtz Zentrum München Deutsches Forschungszentrum für …, priority 2014, dated 2019).

Target: cathepsin B (Homo sapiens, UniProt P07858)
Assay: Labeling with diagnostic inhibitor in cell extracts (gel-based, fluorescence scan): about 30 kDa cathepsin B band
Set-up: endogenous in cells; host or cells: Jurkat T cells; HBL1 and other DLBCL cell lines
Description: Jurkat T cells were cultured in standard RPMI medium containing 10% FCS, 100 U/ml Penicillin/Streptomycin and 2 mM Glutamin. DNA transfection of 6 μg DNA in 8×10^6 Jurkat T cells was performed by electroporation in a GenePulser Xcell (BioRad) with a 220 Volt pulse. For siRNA experiments, Jurkat T cells were transfected with 100 nM siRNA and Atufect transfection reagent (Silence Therapeutics, Berlin). Jurkat T cells were stimulated either with 200 ng/ml PMA (phorbol 12-myristate 13-acetate) and 300 ng/ml Ionomycin (both Calbiochem) or CD3/CD28 antibody co-ligation (human CD3: 1 μg/ml; human CD28: 4 μg/ml; mouse IgG1: 2 μg/ml; mouse IgG2a: 2 μg/ml; BD Biosciences). DLBCL cell lines (HBL1, TMD8, OCI-Ly3, U2932, RIVA, BJAB, Su-DHL-4 and Su-DHL-6) were cultured in standard RPMI medium containing 20% FCS, 100 U/ml Penicillin/Streptomycin and 2 mM Glutamin. OCI-Ly10 cell line was cultured in IMDM containing 20% human serum, 100 U/ml Penicillin/Streptomycin, 2 U/ml heparine, 50 μM β-mercaptoethanol. Inhibitors 10 μM (z-VRPR-FMK, Mepazine, Thioridazine, CA-074Me) were added to the cells in media for 1 h, prior to stimulation and labeling with diagnostic MALT1 inhibitor.
Jurkat T cells (1-2×10^7), primary human PBMCs or primary human T cells (0.25 or 1×10^7) were lysed in 150 μl co-IP buffer without protease inhibitors. DLBCL (3×10^7) were lysed in 250 μl buffer. After centrifugation (14000 rpm, 10 min, 4° C.), 100 μl extract (DLBCL: 200 μl) was stained with probe 5 or probe 6 (3 μM end) for 50 min at 29° C., mixed with 4× loading dye and boiled.

z-VRPR-FMK (Z N-terminal cap, FMK warhead)
effect of inhibitor on the about 30 kDa cathepsin B signal labeled by probe 6 (HBL1 cells, inhibitors 10 μM each): sensitive | effect of inhibitor pretreatment on the band below 34 kDa (cathepsin B) labeled by probe 5 (Jurkat T cells, 10 μM inhibitor, probe 5): reduced
